Residue numbers refer to the chain shown, from its start.
B1: Ab1044 (antibody, V domains shown)
VH: EVQLVESGGGLVQPGGSLRLSCAASGFDFSSYSIHWVRQAPGKGLEWVAAISPYYGSTYYADSVKGRFTISADTSKNTAYLQMNSLRAEDTAVYYCARYYEWYKYDLYAGSLGFDYWGQGTLVTVSS
VL: DIQMTQSPSSLSASVGDRVTITCRASQSVSSAVAWYQQKPGKAPKLLIYSASSLYSGVPSRFSGSRSGTDFTLTISSLQPEDFATYYCQQGGYSLITFGQGTKVEIK
B2: Ab0637 (antibody, V domains shown)
VH: B1 VH with A50S, D106S, A109L
VL: B1 VL
B3: Ab1047 (antibody, V domains shown)
VH: B1 VH with Y59A, Y99A
VL: B1 VL
B4: Ab0935 (antibody, V domains shown)
VH: B1 VH with Y32A, A50S, A109L
VL: B1 VL
B5: Ab0944 (antibody, V domains shown)
VH: B1 VH with A50S, D106A, A109L
VL: B1 VL
B6: Ab0946 (antibody, V domains shown)
VH: B1 VH with A50S, A109L, G113A
VL: B1 VL
B7: Ab0947 (antibody, V domains shown)
VH: B1 VH with A50S, A109L, D115A
VL: B1 VL
B8: Ab0943 (antibody, V domains shown)
VH: B1 VH with A50S, K104A, A109L
VL: B1 VL
B9: Ab0939 (antibody, V domains shown)
VH: B1 VH with A50S, P53A, A109L
VL: B1 VL
B10: Ab0936 (antibody, V domains shown)
VH: B1 VH with A109L
VL: B1 VL
B11: Ab0940 (antibody, V domains shown)
VH: B1 VH with A50S, G56A, A109L
VL: B1 VL
B12: Ab0941 (antibody, V domains shown)
VH: B1 VH with A50S, S57A, A109L
VL: B1 VL
B13: Ab0942 (antibody, V domains shown)
VH: B1 VH with A50S, E101A, A109L
VL: B1 VL
B14: Ab0938 (antibody, V domains shown)
VH: B1 VH with A50S, S52A, A109L
VL: B1 VL
B15: Ab0948 (antibody, V domains shown)
VH: B1 VH with A50S, A109L, Y116A
VL: B1 VL
B16: Ab0707 (antibody, V domains shown)
VH: B1 VH with A50S, D106S, Y108D, A109L
VL: B1 VL
B17: Ab0706 (antibody, V domains shown)
VH: B1 VH with A50S, D106S, Y108N, A109L
VL: B1 VL
B18: Ab0785 (Fab, V domains shown)
VH: QVQLVQSGAEVKKPGASVKVSCKASGYTFTSYWMHWVRQHPGQGLEWMGIIHPNSGGTSYAQKFQGRVTMTRDTSTSTVYMELSSLRSEDTAVYYCAMGDYVSRDYWGQGTLVTVSS
VL: EIVLTQSPGTLSLSPGERATLSCRASSSVSSSYLHWYQQKPGQAPRLLIYSTSSRATGIPDRFSGSGSGTDFTLTISRLEPEDFAVYYCQQYSGYQFTFGQGTKLEIK
modifications: chain 1 pos 246: the Lys of the Avi-tag is biotinylated where biotinylated-Ab0785 was captured on streptavidin sensors; written K
B19: Ab0788 (Fab, V domains shown)
VH: B18 VH with S59N
VL: B18 VL
B20: Ab1023 (antibody, V domains shown)
VH: EVQLVESGGGLVQPGGSLRLSCAASGFTFSNYWMNWVRQAPGKGLEWVAQIRVKYENFATHYADSVKGRFTISRDDSKSTVYLQMNSLRAEDTAVYYCTLYDGFSWGQGTLVTVSS
VL: DIQMTQSPSSLSASVGDRVTITCSASSSVSSGNFHWYQQKPGKAPKLLIYRTSNLASGVPSRFSGSGSGTDYTLTISSLQPEDFATYYCQQWSGYPYTFGQGTKVEIK
B21: Ab1018 (antibody, V domains shown)
VH: B20 VH with Y55S, D102E
VL: B20 VL
B22: Ab1016 (antibody, V domains shown)
VH: B20 VH with W33Y, Y55S
VL: B20 VL
B23: Ab1019 (antibody, V domains shown)
VH: B20 VH with Y55S, G103A
VL: B20 VL
B24: Ab1024 (antibody, V domains shown)
VH: B20 VH with Y55S, A63V
VL: B20 VL
B25: Ab1012 (antibody, V domains shown)
VH: B20 VH with N31S, Y55S
VL: B20 VL
B26: Ab1021 (antibody, V domains shown)
VH: B20 VH with A40S, Y55S
VL: B20 VL
B27: Ab1017 (antibody, V domains shown)
VH: B20 VH with N35S, Y55S
VL: B20 VL
B28: Ab1011 (antibody, V domains shown)
VH: B20 VH with Y55S, L100R
VL: DIQMTQSPSSLSASVGDRVTITCSASSSVSSGNFHWYQQKPGKAPKLLIYRTSNLASGVPSRFSGSGSGTDYTLTISSLQPEDFATYYCQQWSGYPYTFGQGTKVEIKR
B29: Ab1066 (antibody, V domains shown)
VH: B20 VH with Y55S, G103A
VL: B20 VL with W92A
B30: Ab1071 (Fab, V domains shown)
VH: B1 VH with A50S
VL: B1 VL

target: Ab0787; assay: BLI 5-pt +indinavir

Binder	Kd
B1	2.3 nM

target: Ab0786; assay: BLI 5-pt +indinavir

Binder	Kd
B1	8.6 nM

target: Ab0223; assay: BLI 5-pt +indinavir

Binder	Kd
B2	5.9 nM

target: Ab0787; assay: BLI 1-pt +indinavir

Binder	Kd
B1	5.1 nM
B3	47 nM

target: Ab0786; assay: BLI 1-pt +indinavir

Binder	Kd
B1	8.2 nM

target: Ab0223; assay: BLI 1-pt +indinavir
Target sequence in this assay (VH, as listed by the source limits assumed, form in doubt, chain 1 of 2): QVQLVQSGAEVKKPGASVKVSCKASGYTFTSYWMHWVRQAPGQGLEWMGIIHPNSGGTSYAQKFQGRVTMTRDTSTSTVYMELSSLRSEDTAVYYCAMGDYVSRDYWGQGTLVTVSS
Target sequence in this assay (VL, as listed by the source limits assumed, form in doubt, chain 2 of 2): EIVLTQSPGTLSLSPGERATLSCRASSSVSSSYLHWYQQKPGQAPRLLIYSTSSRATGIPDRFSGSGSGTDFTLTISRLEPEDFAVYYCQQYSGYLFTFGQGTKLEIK

Binder	Kd
B4	230 nM
B5	7.1 nM
B6	50 nM
B7	52 nM
B8	130 nM
B9	3.7 nM
B10	< 1 nM
B11	10 nM
B12	3.7 nM
B13	210 nM
B14	310 nM
B15	7.3 nM

target: Ab0223; assay: BLI 3-pt +indinavir

Binder	Kd
B2	5.4 nM
B16	72 nM
B17	89 nM

target: Ab0670; assay: 5-pt kinetics

Binder	Kd
B18	29 nM
B19	86 nM

target: Ab0223; assay: BLI 5-pt +indinavir; remark: another data set of the same source

Binder	Kd
B2	3.7 nM

target: T1, huEpCAM ECD Ag0065 (human) (UniProt P16422); assay: SPR single-cycle
T1 sequence: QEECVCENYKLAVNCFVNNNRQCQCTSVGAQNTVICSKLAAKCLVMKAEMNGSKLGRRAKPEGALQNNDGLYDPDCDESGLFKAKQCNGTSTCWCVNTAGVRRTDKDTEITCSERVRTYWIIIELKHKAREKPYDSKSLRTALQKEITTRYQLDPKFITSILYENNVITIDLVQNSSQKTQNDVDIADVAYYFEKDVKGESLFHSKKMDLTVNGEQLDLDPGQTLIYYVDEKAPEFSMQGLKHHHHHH

Binder	Kd
B20	2 nM
B21	3 nM
B22	7.2 nM
B23	2.5 nM
B24	2.3 nM
B25	9.7 nM
B26	3.1 nM
B27	7.6 nM

target: cyEpCAM ECD Ag0066 (cyno); assay: SPR single-cycle

Binder	Kd
B28	9.9 nM
B20	0.9 nM
B21	2.1 nM
B22	7.7 nM
B23	2 nM
B24	2 nM
B25	6.2 nM
B26	2.3 nM
B27	4.5 nM

target: T1, huEpCAM ECD Ag0065 (human); assay: SPR multi-cycle

Binder	Kd
B21	2.8 nM
B23	1.8 nM
B24	1.6 nM
B29	5.7 nM

target: cyEpCAM ECD Ag0066 (cyno); assay: SPR multi-cycle

Binder	Kd
B21	1.6 nM
B23	1.1 nM
B24	0.94 nM
B29	3 nM

target: Ab0785; assay: BLI +indinavir

Binder	Kd
B30	2.4 nM

— patent publication US20240190987A1, “Engineered EpCam Binding Antibodies” (TigaTX, priority 2021, published 2024)
